Laboratory results: article PMC10397247
Blank lines part the entries; values can stand above or below the binder they belong to.

Experiments:
4H816-AA = target: T1, 4H816-AA; assay: two-hybrid library CCmax; conditions: mean of both orientations;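 further: natural log of median RNA to DNA barcode read ratio; higher means stronger binding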
T1 chain: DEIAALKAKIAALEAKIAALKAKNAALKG

4H3940-AA = target: T2, 4H3940-AA; assay: two-hybrid library CCmax;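 further: natural log of median RNA to DNA barcode read ratio; higher means stronger binding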
T2 chain: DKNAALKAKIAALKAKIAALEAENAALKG

4H87-AA = target: T3, 4H87-AA; assay: two-hybrid library CCmax; conditions: mean of both orientations;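 further: natural log of median RNA to DNA barcode read ratio; higher means stronger binding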
T3 chain: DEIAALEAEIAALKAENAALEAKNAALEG

4H775-AA = target: T4, 4H775-AA; assay: two-hybrid library CCmax; conditions: mean of both orientations;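 further: natural log of median RNA to DNA barcode read ratio; higher means stronger binding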
T4 chain: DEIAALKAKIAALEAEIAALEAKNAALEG

4H510-AA = target: T5, 4H510-AA; assay: two-hybrid library CCmax; conditions: mean of both orientations
T5 chain: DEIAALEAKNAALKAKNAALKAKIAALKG

4H72-bA = target: T6, 4H72-bA; assay: two-hybrid library CCNG1
T6 chain: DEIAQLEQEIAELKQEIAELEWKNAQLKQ

4H883-bA = target: T7, 4H883-bA; assay: two-hybrid library CCNG1
T7 chain: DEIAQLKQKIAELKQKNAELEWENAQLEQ

4H568-bA = target: T8, 4H568-bA; assay: two-hybrid library CCNG1
T8 chain: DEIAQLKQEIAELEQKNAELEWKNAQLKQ

4H953-bA = target: T9, 4H953-bA; assay: two-hybrid library CCNG1
T9 chain: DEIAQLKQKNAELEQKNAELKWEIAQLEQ

4H454-bA = target: T10, 4H454-bA; assay: two-hybrid library CCNG1
T10 chain: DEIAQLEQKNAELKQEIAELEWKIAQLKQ

4H918-bA = target: T11, 4H918-bA; assay: two-hybrid library CCNG1
T11 chain: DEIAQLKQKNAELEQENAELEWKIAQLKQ

4H607-bA = target: T12, 4H607-bA; assay: two-hybrid library CCNG1
T12 chain: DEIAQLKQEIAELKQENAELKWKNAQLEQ

4H754-bA = target: T13, 4H754-bA; assay: two-hybrid library CCNG1
T13 chain: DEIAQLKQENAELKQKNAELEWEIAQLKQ

4H908-bA = target: T14, 4H908-bA; assay: two-hybrid library CCNG1
T14 chain: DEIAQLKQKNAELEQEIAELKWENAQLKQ

4H967-bA = target: T15, 4H967-bA; assay: two-hybrid library CCNG1
T15 chain: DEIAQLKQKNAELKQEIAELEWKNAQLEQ

4H797-bA = target: T16, 4H797-bA; assay: two-hybrid library CCNG1
T16 chain: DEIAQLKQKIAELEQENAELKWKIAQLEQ

4H717-bA = target: T17, 4H717-bA; assay: two-hybrid library CCNG1
T17 chain: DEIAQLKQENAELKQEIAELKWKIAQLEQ

4H687-bA = target: T18, 4H687-bA; assay: two-hybrid library CCNG1
T18 chain: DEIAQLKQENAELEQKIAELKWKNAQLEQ

4H3939-AA = target: T19, 4H3939-AA; assay: two-hybrid library CCmax; conditions: mean of both orientations
T19 chain: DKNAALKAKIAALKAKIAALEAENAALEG

4H3782-AA = target: T20, 4H3782-AA; assay: two-hybrid library CCmax; conditions: mean of both orientations
T20 chain: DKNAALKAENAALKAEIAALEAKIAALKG

4H380-AA = target: T21, 4H380-AA; assay: two-hybrid library CCmax; conditions: mean of both orientations
T21 chain: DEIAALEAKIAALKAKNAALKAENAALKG

4H446-AA = target: T22, 4H446-AA; assay: two-hybrid library CCmax; conditions: mean of both orientations
T22 chain: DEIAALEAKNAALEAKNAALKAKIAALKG

4H464-AA = target: T23, 4H464-AA; assay: two-hybrid library CCmax; conditions: mean of both orientations
T23 chain: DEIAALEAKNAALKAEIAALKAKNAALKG

4H3629-AA = target: T24, 4H3629-AA; assay: two-hybrid library CCmax; conditions: mean of both orientations
T24 chain: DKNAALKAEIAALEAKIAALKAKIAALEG

4H63-AA = target: T25, 4H63-AA; assay: two-hybrid library CCmax; conditions: mean of both orientations
T25 chain: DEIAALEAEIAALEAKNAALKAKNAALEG

4H483-AA = target: T26, 4H483-AA; assay: two-hybrid library CCmax; conditions: mean of both orientations
T26 chain: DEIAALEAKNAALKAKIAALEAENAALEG

4H3969-AA = target: T27, 4H3969-AA; assay: two-hybrid library CCmax; conditions: mean of both orientations
T27 chain: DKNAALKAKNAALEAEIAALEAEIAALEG

4H3414-AA = target: T28, 4H3414-AA; assay: two-hybrid library CCmax
T28 chain: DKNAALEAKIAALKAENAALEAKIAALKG

4H3595-AA = target: T29, 4H3595-AA; assay: two-hybrid library CCmax; conditions: mean of both orientations
T29 chain: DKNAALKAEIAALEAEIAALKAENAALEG

4H341-AA = target: T30, 4H341-AA; assay: two-hybrid library CCmax; conditions: mean of both orientations
T30 chain: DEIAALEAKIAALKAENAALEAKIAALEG

4H3049-AA = target: T31, 4H3049-AA; assay: two-hybrid library CCmax; conditions: mean of both orientations
T31 chain: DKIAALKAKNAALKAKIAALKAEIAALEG

4H3915-AA = target: T32, 4H3915-AA; assay: two-hybrid library CCmax; conditions: mean of both orientations
T32 chain: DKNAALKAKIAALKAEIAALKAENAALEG

4H3449-AA = target: T33, 4H3449-AA; assay: two-hybrid library CCmax; conditions: mean of both orientations
T33 chain: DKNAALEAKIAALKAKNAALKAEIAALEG

4H3974-AA = target: T34, 4H3974-AA; assay: two-hybrid library CCmax; conditions: mean of both orientations
T34 chain: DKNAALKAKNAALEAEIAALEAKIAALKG

4H3094-AA = target: T35, 4H3094-AA; assay: two-hybrid library CCmax; conditions: mean of both orientations
T35 chain: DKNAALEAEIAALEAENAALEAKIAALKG

4H2961-AA = target: T36, 4H2961-AA; assay: two-hybrid library CCmax; conditions: mean of both orientations
T36 chain: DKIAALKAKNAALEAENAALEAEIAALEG

4H3619-AA = target: T37, 4H3619-AA; assay: two-hybrid library CCmax; conditions: mean of both orientations
T37 chain: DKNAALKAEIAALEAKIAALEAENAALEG

4H3777-AA = target: T38, 4H3777-AA; assay: two-hybrid library CCmax; conditions: mean of both orientations
T38 chain: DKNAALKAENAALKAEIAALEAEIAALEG

4H324-AA = target: T39, 4H324-AA; assay: two-hybrid library CCmax; conditions: mean of both orientations
T39 chain: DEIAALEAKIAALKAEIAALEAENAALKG

4H432-AA = target: T40, 4H432-AA; assay: two-hybrid library CCmax; conditions: mean of both orientations
T40 chain: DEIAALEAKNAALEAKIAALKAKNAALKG

interaction score (4H816-AA): -0.0778 | interaction score (4H3940-AA): 0.422 | interaction score (4H87-AA): -0.615 | interaction score (4H775-AA): -0.249 | interaction score (4H510-AA): -1.47
Binder: DKNAALKAKIAALKAKIAALEAENAALKG [4H3940-AA]

interaction score (4H72-bA): -0.678 | interaction score (4H883-bA): -0.0808 | interaction score (4H568-bA): -0.589 | interaction score (4H953-bA): 0.62 | interaction score (4H454-bA): 1.86 | interaction score (4H918-bA): -0.912 | interaction score (4H607-bA): -0.773 | interaction score (4H754-bA): -0.711 | interaction score (4H908-bA): -0.182 | interaction score (4H967-bA): -0.131 | interaction score (4H797-bA): -1.06 | interaction score (4H717-bA): 0.262 | interaction score (4H687-bA): 1.48
Binder: DEIAQLEQKNAELKQEIAELEWKIAQLKQ [4H454-bA]

interaction score (4H3939-AA): -1.42 | interaction score (4H3782-AA): -1.23 | interaction score (4H380-AA): -0.842 | interaction score (4H446-AA): -0.818 | interaction score (4H464-AA): 1.47 | interaction score (4H3629-AA): 0.922 | interaction score (4H63-AA): -0.187 | interaction score (4H483-AA): 0.796 | interaction score (4H3969-AA): -1.31 | interaction score (4H3414-AA): -0.215 | interaction score (4H3595-AA): -1.09
Binder: DKNAALEAKIAALKAENAALEAKIAALKG [4H3414-AA]

interaction score (4H341-AA): -1.12 | interaction score (4H380-AA): -1.17 | interaction score (4H446-AA): -0.0537 | interaction score (4H3629-AA): -1.56 | interaction score (4H3049-AA): -0.853 | interaction score (4H3915-AA): -1.59 | interaction score (4H3449-AA): -0.39 | interaction score (4H3974-AA): -1.36 | interaction score (4H3094-AA): 1.06 | interaction score (4H2961-AA): -2.03 | interaction score (4H3619-AA): -1.85 | interaction score (4H63-AA): -1.61 | interaction score (4H3777-AA): -1.93 | interaction score (4H324-AA): -1.49 | interaction score (4H432-AA): 2.09
Binder: DKIAALKAKNAALEAEIAALEAENAALEG [4H2947-AA]
